Test results taken from patent US9388406B2, “System useful for reporting protein-protein interactions in the bacterial periplasm” (Cornell University, priority 2008, dated 2016).

B1: Fos: Fos leucine zipper, fused to the ω fragment of β-lactamase; interacts with Jun (protein)
chain: LQAETDQLEDEKSALQTEIANLLKEKEKLGGGGSGGGGSGGGGSNGRTLASRQQLIDWMEADKVAGPLLRSALPAGWFIADKSGAGERGSRGIIAALGPDGKPSRIVVIYTTGSQATMDERNRQIAEIGASLIKHW
B2: GCN4-PP: double proline mutant of the GCN4 leucine zipper with reduced homodimerization, antigen of scFv-GCN4 (protein)
chain: HPETLVKVKDAEDQLGARVGYIELDLNSGKILESFRPEERFPMMSTFKVLLCGAVLSRVDAGQEQLGRRIHYSQNDLVEYSPVTEKHLTDGMTVRELCSAAITMSDNTAANLLLTTIGGPKELTAFLHNMGDHVTRLDRWEPELNEAIPNDERDTTMPAAMATTLRKLLTGELLEPKVEELLPKNYHLENEVARL
modifications: left off: small tags and cut ends

Key:
Jun [1] = target: T1, Jun (Homo sapiens, UniProt P05412); assay: split β-lactamase protein complementation assay in the periplasm, spot plating on ampicillin, Fos/Jun leucine zippers; assay type: cell-based; conditions: Fos on ω fragment, Jun on α fragment of Bla; negative control GCN4
Protocol: (§1) E. coli MC4100 cells were co-transformed with plasmids pDMB-P1-ωBLA (CmR) and aGS-P2 (KanR), where P1 and P2 represent proteins of interest. Cells were grown overnight at 37° C. in LB medium containing 20 μg/mL chloramphenicol (Cm) and 50 μg/mL kanamycin (Kan). Screening of cells on LB agar was performed by first normalizing overnight cultures by OD600 and then spotting 5 μL, of serially diluted (10-10^6-fold) cells on LB agar plates with […] of ampicillin (Amp). In all cases, the plates were incubated 16 h at 37° C. and then imaged using a ChemiDoc System (BioRad). […] The minimum bacteriocidal concentration was determined as the minimum Amp concentration at which no colonies appeared on the plates.
(§2) It was hypothesized that detecting protein interactions in the periplasm can be used to engineer antibody fragments with in vivo activity in the periplasm. […] The approach used in the present invention was to fuse known interacting protein domains to genes encoding two split β-lactamase fragments using a two-plasmid system (Wehrman, T., et al., “Protein-protein Interactions Monitored in Mammalian Cells Via Complementation of Beta-lactamase Enzyme Fragments,” Proc Natl Acad Sci USA 99:3469-3474 (2002), which is hereby incorporated by reference in its entirety)(see FIG. 2A). […]

Jun [2] = target: T1, Jun; conditions: Fos/Jun leucine zippers; Pernelle et al. 1993; cited from earlier work
scFv-GCN4 = assay: split β-lactamase protein complementation assay in the periplasm, MBC on ampicillin, scFv-GCN4 with antigen; assay type: cell-based; conditions: E. coli MC4100; antigen on α Bla fragment paired with scFv-GCN4; versus α-Jun negative control
Protocol: as §1, §2

T1 sequence (P05412 280-308 limits assumed, species assumed): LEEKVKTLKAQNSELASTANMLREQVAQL

Molecule | ampicillin activity in the PCA (Jun [1]) | KD of their interaction (Jun [2]) | higher MBC (minimum bacteriocidal concentration) on ampicillin (scFv-GCN4)
B1 | well above that of the negative control | nanomolar range | 
B2 |  |  | 16 fold
